± gives the standard deviation of the averaged measurements.
B1: library; numbered along this chain (parent)
chain: MNIQIGELAKRTACPVVTIRFYEQEGLLPPPGRSRGNFRLYGEEHVERLQFIRHCRSLDMPLSDVRTLLSYRKRPDQDCGEVNMLLDEHIRQVESRIGALLELKHHLVELREACSGARPAQSCGILQGLSDCVCDTRGTTAHPSD

Legend:
[1] = variants of: B1; assay: sfGFP reporter fluorescence (15 h) (µM FITC); higher = higher leak; details: library round: Round 0; ligand: none
Description: (§1)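 Cell-free (BL21 Star DE3 extract, PANOx-SP) biosensing: 1 µL Echo-assembled reactions with linear PbrR variant templates (5 nM) and pPbrR-sfGFP reporter, with 1 µM Pb (lead chloride), 30 µM Zn (zinc acetate) or no ligand; endpoint sfGFP fluorescence after 15 h at 30 °C, calibrated as µM FITC. Round 0 library (alanine scan, site saturation, combinatorial) of PbrR from Cupriavidus metallidurans; 2 biological replicates.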

[2] = variants of: B1; assay: sfGFP reporter fluorescence (15 h) (µM FITC); higher = stronger transcriptional activation; details: library round: Round 0
Description: as §1

Variant	sfGFP reporter fluorescence [1]	sfGFP reporter fluorescence ([2]; ligand: 1 µM Pb)	sfGFP reporter fluorescence ([2]; ligand: 30 µM Zn)
G6D	0.06377 ± 0.00052	0.06047 ± 0.00052	0.0621 ± 0.00078
G6K	0.0625 ± 0.0013	0.06414 ± 0.00052	0.222 ± 0.0031
G6C	0.0601 ± 0.0026	0.05882 ± 0.00026	0.0621 ± 0.0018
S34A	0.0645 ± 0.001	0.0654 ± 0.00078	0.328 ± 0.018
D64K K104V	0.4361 ± 0.0031	1.44 ± 0.053	4.041 ± 0.031
D64G	0.06322 ± 0.00026	0.121 ± 0.0054	1.26 ± 0.049
V16Q	0.0663 ± 0.0031	0.112 ± 0.0083	1.425 ± 0.0039
V16L	0.06249 ± 0.00026	0.0825 ± 0.0021	0.56 ± 0.022
V16F	0.0623 ± 0.0015	0.0641	0.107 ± 0.0029
V16E	0.06341 ± 0.00052	0.0762 ± 0.001	0.986 ± 0.046
G36V	0.06011 ± 0.00052	0.0711 ± 0.00052	0.322 ± 0.011
G36M	0.0612	0.0667 ± 0.0031	0.236 ± 0.028
G36P	0.05937 ± 0.00052	0.0583 ± 0.001	0.0627 ± 0.0036
G36Q	0.0592 ± 0.0029	0.0676 ± 0.0023	0.3562 ± 0.0026
I3E	0.061 ± 0.0013	0.0601 ± 0.001	0.101 ± 0.0013
H142A	0.0614 ± 0.0034	0.0718 ± 0.001	0.728 ± 0.32
L110Y	0.0581 ± 0.00078	0.0597	0.0656 ± 0.001
L110V	0.0601 ± 0.0021	0.06634 ± 0.00052	0.502 ± 0.065
V46R	0.0594 ± 0.001	0.08704 ± 0.00026	0.75 ± 0.054
V46L	0.0542 ± 0.0047	0.0847 ± 0.015	0.811 ± 0.057
I125R	0.0608 ± 0.0026	0.0603 ± 0.0013	0.0575 ± 0.0021
I125K	0.0599 ± 0.0029	0.05864 ± 0.00052	0.0564 ± 0.0031
I125H	0.0601 ± 0.0031	0.06011 ± 0.00052	0.057 ± 0.0023

Variant	sfGFP reporter fluorescence [1]	sfGFP reporter fluorescence ([2]; ligand: 1 µM Pb)	sfGFP reporter fluorescence ([2]; ligand: 30 µM Zn)
I125N	0.0581 ± 0.00078	0.0581 ± 0.00078	0.055 ± 0.0015
I125V	0.0583	0.0627	0.183 ± 0.0036
I125Q	0.0588 ± 0.00078	0.0597 ± 0.0015	0.055 ± 0.0021
I125L	0.055 ± 0.001	0.05717 ± 0.00052	0.05552 ± 0.00026
I125F	0.0553 ± 0.001	0.0579 ± 0.0021	0.05259 ± 0.00026
E7G	0.05882 ± 0.00026	0.0755 ± 0.0042	0.626 ± 0.02
E7A	0.0552 ± 0.0018	0.0671 ± 0.001	1.07 ± 0.011
E7V	0.06285 ± 0.00026	0.0865	0.961 ± 0.14
E7H	0.06139 ± 0.00026	0.083 ± 0.0013	0.638 ± 0.036
E7P	0.061 ± 0.0013	0.0709 ± 0.00078	0.3319 ± 0.0018
E7R	0.06395 ± 0.00026	0.102 ± 0.0054	1.25 ± 0.16
P61N K104V L107C	0.283 ± 0.021	1.28 ± 0.11	2.54 ± 0.079
Y22L	0.0614 ± 0.00078	0.0597 ± 0.0015	0.07183 ± 0.00052
Y22K	0.0625 ± 0.0018	0.0627 ± 0.001	0.0614 ± 0.0029
I97G	0.0555 ± 0.0013	0.0603 ± 0.0013	0.404 ± 0.014
I97C	0.0601 ± 0.0015	0.0702 ± 0.0065	0.761 ± 0.036
R20L	0.06102 ± 0.00026	0.0597 ± 0.0026	0.0671 ± 0.0047
R20N	0.06304 ± 0.00052	0.0674 ± 0.001	0.102 ± 0.0044
R20P	0.06285 ± 0.00026	0.05974 ± 0.00052	0.0673 ± 0.0013
R20A	0.05772 ± 0.00026	0.0548 ± 0.0018	0.0572 ± 0.001
R20S	0.0634 ± 0.0021	0.061 ± 0.0023	0.063
M60L K104V G128I	0.312 ± 0.017	1.27 ± 0.04	3.28 ± 0.16
